Assay results published in patent US20260069689A1 (Regeneron, published 2026).

Columns and labels:
[1] = target: SARS-CoV-2 RBD.mmh (Spike amino acids Arg319-Phe541 with C-terminal myc-myc-6-Histidine tag) (SARS-CoV-2, UniProt P0DTC2 319-541)
[2] = target: T1, SARS-COV-2 RBD-MMH (SARS-COV-2 RBD extracellular domain with C-terminal myc-myc-hexahistidine tag) (SARS-CoV-2)
[3] = target: T1, SARS-COV-2 RBD-MMH (SARS-COV-2 RBD …); assay: SPR 37C, mAb captured, pH 7.4 vs pH 6.0

Binder	IC50 [1]	koff [2]	t½ at pH 6.0 [2]	t½ at pH 7.4 [2]	t½ Ratio of pH 7.4 to pH 6.0 [3]
mAb15163 (antibody, V domains shown) VH: EVQLVETGGGLIQPGESLRLSCAASGFIVSTNYMNWVRQAPGKGLEWVSVIYRGGSTYYADSVKGRFTISRDNSKNTLFLQMNSLRAEDTAVYYCARGHEDFDYDTPASGAFDIWGQGTMVTVSS VL: QSALTQPPSASGSPGQSVTISCTGTSSDVGGHNYVSWYQQHPGKAPKVMIYEVSKRPSGVPDRFSGSKSGNTASLTVSGLQAEDEADYYCSSYAGSNKFVFGTGTKVTVLG	0.217 nM	0.00104 s⁻¹	11.1 min	23.4 min	2.1
mAb15164 (antibody, V domains shown) VH: EVQLVESGGGLVQPGGSLRLSCAASGFAVSSNYMTWVRQAPGKGLEWVATIYSGDSTYYADSVKGRFTISRHNSKNTLSLQMNSLRADDTAIYYCARLSGVLSGTYNGAFDIWGQGTMVTVSS VL: QSALTQPASVSGSPGQSITISCTGTSSDFGNYNIVSWYQQHPGQAPKVMIYEGNKRPSGVSNRFSGSKSGHTASLTISGLQAEDEADYYCSSYAGSSTWVFGGGTKLTVLG	0.245 nM	0.0021 s⁻¹	5.5 min	5.1 min	0.9
mAb15165 (antibody, V domains shown) VH: EVQLVESGGGLVQPGGSLRLSCAASGFTVSSNYMSWVRQAPGKGLEWVSAIYSGDSTYYADSVKGRFTISKDNSKNTLYLQMNSLRGEDTAVYYCARLGGALQAYDGAFDYWGQGTLATVSS VL: QSALTQPASVSGSPGQSITISCTGTSSDFGSYNLVSWYQQHPGKAPKLMIYEGNKRPSGVSIRFSGSKSGNTASLTISGLQAEDEADYYCSSYAGSSTWVFGGGTKLTVLG	0.189 nM	0.00128 s⁻¹	9.1 min	7.1 min	0.8
mAb15166 (antibody, V domains shown) VH: EVQLVESGGGLVQPGGSLRLSCAASGFTVTSNYMSWVRQAPGKGLEWVSAIYSGESTYYADSVKGRFTISRDSSKNTLYLQMNSLRVEDTAVYYCASIHDYSNYVGGFDPWGQGTLVTVSS VL: QSALTQPASVSGSPGQSITISCTGPSSDFGSYNLVSWYQQHPGKAPKLMIYEGTKRPSGVSNRFSGSKSGNTASLTISGLQAEDEADYYCSSYAGSSTWVFGGGTKLTVLG	0.475 nM	0.0301 s⁻¹	0.4 min	0.4 min	1
mAb15170 (antibody, V domains shown) VH: EVQLVESGGGLVQPGGSLRLSCAATGITVSSNYMSWVRQAPGKGLEWVSLIYSGGSTFYADSVKGRFTISRHNSKNTLYLQMSSLRAEDTAVYYCARDLVDFGMDVWGQGTTVTVSS VL: DIQLTQSPSSLSASVGDRVTITCRASQGISNYLAWYQQKPGKAPKLLIYAASTLQSGVPSRFSGSGSGTDFTLTISSLQPEDFGTYYCQQLNSDSPTFGQGTKVEIKR	0.102 nM	8e-05 s⁻¹	144 min	108 min	0.7
mAb15150 (antibody, V domains shown) VH: EVQLVETGGGLIQPGGSLRLSCAAPGFIVSSNYMSWVRQAPGKGLEWVSLLYPGGSTYYADSVKGRFTISRDNSKNTLYLQMNSLRADDTAVYYCARVLPIVEDHFDYWGQGTLVTVSS VL: DIQLTQSPSFLSASVGDRVTITCRASQGMSSYLAWYQKKPGKAPKLLIYGATILQSGVPSRFSGSGSGTEFTLTISSLQPEDFATYYCQQLNSDPLYMYTFGQGTKLEIKR	0.254 nM	3.81e-05 s⁻¹	5.06 h	103 min	0.3
mAb15151 (antibody, V domains shown) VH: QVQLVESGGGVVQPGRSLRLSCAASGFVFNSYGMHWVRQAPGKGLEWVAVLWYEGSKNYYADSVKGRFTISRDNSKNTLYLQMNSLRAEDTAVYYCARHGSGSFFGYYLDYWGQGTLVTVSS VL: DIQMTQSPSSLSASVGDRVTITCRASHNINDFLNWYQQKPGKAPRLLIYAASSLQSGVPSRFSGSGSGTDFTLTISSLQPEDFATYYCQESYTTPPTFGQGTKLEIKR	0.641 nM	0.00454 s⁻¹	2.5 min	1.7 min	0.7
